These results are taken from PMC5882713, “Sensitive colorimetric assay using insulin G-quadruplex aptamer arrays on DNA nanotubes coupled with magnetic nanoparticles”.

The target of the data set is insulin (UniProt P01308;P01308 25-54;90-110). Briefly: circular dichroism; 20 uM aptamer, 100 nM insulin; G4 spectrum (min 245 nm, max 275 nm) after interaction with insulin; Binding buffer 20 mM Tris-HCl, 140 mM NaCl, 5 mM KCl, 1 mM CaCl2, 1 mM MgCl2, pH 7.4, room temperature, 40-60 min; then hemin in DMSO 1 h and TMB-H2O2; random N30 control is a pool and not listed. The following applies: protein: commercial, copies: 1;1, label: 5' biotin.
Sequence of insulin (P01308 25-54, chain 1 of 2): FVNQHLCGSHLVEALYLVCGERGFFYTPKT
Sequence of insulin (P01308 90-110, chain 2 of 2): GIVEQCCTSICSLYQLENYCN

B1: G-quadruplex insulin aptamer (G-rich aptamer) (structured_DNA)
DNA: GGTGGTGGGGGGGGTTGGTAGGGTGTCTTC
Turning to B1, the binding result was “binds”.
